Like-named read-outs stand apart in the source and are kept apart here. Non-standard residues stand in square brackets, D forms with d. No end group written: not given here. *: point of attachment. Biotin = O=C1N[C@H]2[C@H](CS[C@H]2CCCCC(=O)*)N1; Arg(Me) = CNC(=N)NCCC[C@H](N)C(=O)O; Ahx = NCCCCCC(=O)O
B3: H3K27me3 peptide (peptide)
peptide: KQLATKAARKSAPATGGVK
modifications: Kme3 (trimethyl-lysine) at the 10th residue (KQLATKAARKme3SAPATGGVK); N-terminus biotin + aminohexanoic acid linker, or FITC at the N-terminus for fluorescence polarization
notes: Synthetic peptide (GenScript); One entry is used for the biotinylated and the FITC-labelled form

How the values were obtained:
H3K27me3 peptide [1] = molecular target: B3; test: fluorescence polarization, FITC-peptide 0.5 nM
H3K27me3 peptide [2] = molecular target: B3; test: ITC, peptide titrated into the chromodomain, 25 C
H3K27me1 = molecular target: T1, H3K27me1 (Kme1 at peptide residue 10 (histone H3 K27); N-terminal biotin and aminohexanoic acid linker); test: luciferase-fusion assay on immobilized peptide
T1 construct: also called H3K27Me1 peptide
T1 peptide: KQLATKAARKSAPATGGVK
Procedure: (§1) For luciferase-based assays, 384-well white plates (PerkinElmer) were coated for 16 h at 4° C. with 4 μg/ml streptavidin (New England Biolabs, N7021S) in TBS pH 8.5 (50 mM Tris-HCl pH 8.5, 150 mM NaCl). Each well was blocked with 60 μl/well of TBS pH 8.5 containing 0.5% BSA (TB buffer) and incubated at 25° C. for 1 h. Plates were washed four times with 90 μl/well of PBS pH 7.4, 0.05% Tween-20 (PT buffer) and incubated with 25 μl/well of biotinylated histone peptides at 5 μg/ml in TB buffer pH 8.5 for 30 min at 25° C. Plates were washed and incubated with Cbx chromodomain-luciferase fusions diluted to 0.1 nM for Cbx. VD or 100 nM for Cbx.wt in TB buffer, 0.05% Tween-20, 1 mM DTT, 5% glycerol (TBT buffer). Plates were incubated for 1 h at 25° C. with gentle shaking, washed six times and luminescence intensity was measured with a Biotek Synergy 5 plate reader (Biotek) using the ONE-Glo™ EX luciferase assay system reagent (Promega). Following background subtraction of the luminescence signal derived from wells coated with streptavidin, the luminescence intensity was normalized to wells with immobilized H3K9me3 peptide.
(§2) To enhance detection sensitivity, each chromodomain was expressed as a fusion to the N-terminus of an engineered firefly luciferase and binding was measured by luminescence intensity.

[3] = molecular target: T2, H3K27 peptide (non-methylated) (also: N-terminal biotin + Ahx, or FITC at N-terminus); test: luciferase-fusion assay on immobilized peptide
T2 construct: also called unmethylated H3K27 peptide
T2 peptide: KQLATKAARKSAPATGGVK
Procedure: as §1, §2

H3K27me2 = molecular target: T3, H3K27me2 (Kme2 at peptide residue 10 (histone H3 K27); N-terminal biotin and aminohexanoic acid linker); test: luciferase-fusion assay on immobilized peptide
T3 construct: also called H3K27Me2 peptide
T3 peptide: KQLATKAARKSAPATGGVK
Procedure: as §1, §2

H3K14 = molecular target: T4, H3K14; test: luciferase-fusion assay on immobilized peptide
T4 construct: also called H3K14 peptide (non-modified)
T4 peptide: {Biotin-Ahx}-TARKSTGGKAPRKQLAT
Procedure: as §1, §2

H3R17me1 = molecular target: T5, H3R17me1; test: luciferase-fusion assay on immobilized peptide
T5 construct: also called H3R17me1 peptide
T5 peptide: {Biotin-Ahx}-KSTGGKAP[Arg(Me)]KQLATKAA
Procedure: as §1, §2

H3K27me3 peptide [4] = molecular target: B3; test: luciferase-fusion assay on immobilized peptide
Procedure: as §1, §2

H3R17 = molecular target: T6, H3R17; test: luciferase-fusion assay on immobilized peptide
T6 construct: also called H3R17 peptide (non-modified)
T6 peptide: {Biotin-Ahx}-KSTGGKAPRKQLATKAA
Procedure: as §1, §2

[5] = molecular target: T7, Cbx6.wt chromodomain (tags removed) (human, UniProt O95503 6-69); test: fluorescence polarization
T7 construct: also called Cbx6-chromo
T7 sequence: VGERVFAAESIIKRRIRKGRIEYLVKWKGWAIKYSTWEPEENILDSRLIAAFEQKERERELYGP

[6] = molecular target: Cbx5.wt chromodomain (tags removed) (human, UniProt P45973 17-78); test: fluorescence polarization
[7] = molecular target: Cbx3.wt chromodomain (tags removed) (human, UniProt Q13185 23-81); test: fluorescence polarization
[8] = molecular target: T8, Cbx1.wt chromodomain (tags removed) (human, UniProt P83916 17-79); test: fluorescence polarization
T8 construct: also called Cbx1-chromo

[9] = molecular target: T9, Cbx7.wt chromodomain (tags removed) (human, UniProt O95931 4-75); test: fluorescence polarization, FITC-peptide 0.5 nM
T9 construct: also called Cbx7-chromo
T9 sequence: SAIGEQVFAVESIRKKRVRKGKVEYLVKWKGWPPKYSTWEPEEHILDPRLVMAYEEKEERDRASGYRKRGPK

[10] = molecular target: T10, Cbx2.wt chromodomain (tags removed) (human, UniProt Q14781 8-70); test: fluorescence polarization, FITC-peptide 0.5 nM
T10 sequence: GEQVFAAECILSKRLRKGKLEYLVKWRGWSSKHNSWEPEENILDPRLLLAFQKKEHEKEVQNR

[11] = molecular target: T9, Cbx7.wt chromodomain (tags removed); test: fluorescence polarization, FITC-peptide 0.5 nM; remark: listed apart in the source
H3K27me3 peptide [12] = molecular target: B3; test: fluorescence polarization
H3K9me1 = molecular target: T11, H3K9me1 (Kme1 at peptide residue 9 (histone H3 K9); N-terminal biotin and aminohexanoic acid linker); test: luciferase-fusion assay on immobilized peptide
T11 construct: also called H3K9Me1 peptide
T11 peptide: ARTKQTARKSTGGKAPR
Procedure: as §1, §2

H4K20 peptide = H4K20 peptide (N-terminus biotin + aminohexanoic acid linker); test: luciferase-fusion assay on immobilized peptide
Procedure: as §1, §2

H3K9Ac = molecular target: T12, H3K9Ac (Kac at peptide residue 9 (histone H3 K9); N-terminal biotin and aminohexanoic acid linker); test: luciferase-fusion assay on immobilized peptide
T12 construct: also called H3K9Ac peptide
T12 peptide: ARTKQTARKSTGGKAPR
Procedure: as §1, §2

H4K20me3 = molecular target: T13, H4K20me3 (Kme3 at peptide residue 8 (histone H4 K20); N-terminal biotin and aminohexanoic acid linker); test: luciferase-fusion assay on immobilized peptide
T13 construct: also called H4K20Me3 peptide
Procedure: as §1, §2

H3K9me2 = molecular target: T14, H3K9me2 (Kme2 at peptide residue 9 (histone H3 K9); N-terminal biotin and aminohexanoic acid linker); test: luciferase-fusion assay on immobilized peptide
T14 construct: also called H3K9Me2 peptide
T14 peptide: ARTKQTARKSTGGKAPR
Procedure: as §1, §2

H3K14Ac = molecular target: T15, H3K14Ac; test: luciferase-fusion assay on immobilized peptide
T15 construct: also called H3K14Ac peptide
T15 peptide: {Biotin-Ahx}-TARKSTGGK(Ac)APRKQLAT
Procedure: as §1, §2

[13] = molecular target: T16, H3K9 peptide (non-methylated) (also: N-terminal FITC, or biotin + Ahx); test: luciferase-fusion assay on immobilized peptide
T16 construct: also called unmethylated H3K9 peptide
T16 peptide: ARTKQTARKSTGGKAPR
Procedure: as §1, §2

Cbx3.wt chromodomain (tags removed), sequence (Q13185 23-81 limits assumed): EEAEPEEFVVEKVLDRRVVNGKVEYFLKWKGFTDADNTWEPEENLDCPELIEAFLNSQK
T8 sequence (P83916 17-79 limits assumed): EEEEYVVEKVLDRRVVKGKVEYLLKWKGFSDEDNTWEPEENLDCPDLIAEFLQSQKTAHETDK
Cbx5.wt chromodomain (tags removed), sequence (P45973 17-78 limits assumed): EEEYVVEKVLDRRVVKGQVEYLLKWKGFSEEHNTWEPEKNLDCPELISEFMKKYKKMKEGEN

B1: Cbx7.V1 chromodomain (tags removed) (designed binder)
chain: SAIGDDIFAVESIRKKRVRKGKVEYLVKWEGWPLEYSTWEPEEHILDPRLVMAYEEKEERDRASGYRKRGPK
notes: ITC and FP: His6 and Flag tags removed with TEV protease
In the case of B1, the Kd (H3K27me3 peptide [1]) is reported as 4 µM and the Kd (H3K27me3 peptide [2]) is reported as 7.8 µM.

B2: Cbx6.VD chromodomain-luciferase fusion (designed binder)
chain: MSYYHHHHHHGSDYKDDDDKSSGENLYFQGSGGSVGDRVFAAESIIKRRIRKGRIEYLVKWEGWAIKYSTWEPEENILDSRLIAAFEQKERERELYGP
notes: not shown: engineered YY5 firefly luciferase from Photinus pyralis fused to the C-terminus
B2: no binding (tested: 0.1 nM) (H3K27me1); no binding (tested: 0.1 nM) [3]; no binding (tested: 0.1 nM) (H3K27me2). B2: no binding (tested: 0.1 nM) (H3K14); no binding (tested: 0.1 nM) (H3R17me1); no binding (tested: 0.1 nM) (H3K27me3 peptide [4]). B2: no binding (tested: 0.1 nM) (H3R17).

B3: no binding [5]; no binding [6]; no binding [7]. For the same binder, the binding result [8] was “no binding”, the Kd [9] was 110 µM and the Kd [10] was 100 µM. The Kd [11] was 110 µM.

B4: Cbx6.VD chromodomain (tags removed) (designed binder)
chain: VGDRVFAAESIIKRRIRKGRIEYLVKWEGWAIKYSTWEPEENILDSRLIAAFEQKERERELYGP
B4: no binding (H3K27me3 peptide [12]).

B5: Cbx8.wt chromodomain-luciferase fusion (other)
chain: MSYYHHHHHHGSDYKDDDDKSSGENLYFQGSGGSGERVFAAEALLKRRIRKGRMEYLVKWKGWSQKYSTWEPEENILDARLLAAFEEREREMELYGP
notes: as for B2
B5: no binding (tested: 100 nM) (H3K27me1); no binding (tested: 100 nM) [3]; no binding (tested: 100 nM) (H3K27me2). B5: no binding (tested: 100 nM) (H3K14); no binding (tested: 100 nM) (H3K9me1); no binding (tested: 100 nM) (H4K20 peptide). B5: no binding (tested: 100 nM) (H3K9Ac); no binding (tested: 100 nM) (H4K20me3); no binding (tested: 100 nM) (H3K9me2). B5: no binding (tested: 100 nM) (H3K14Ac); no binding (tested: 100 nM) (H3R17me1); no binding (tested: 100 nM) [13]. B5: no binding (tested: 100 nM) (H3R17).

Reference: patent publication US20260266833A1 (AXOIYA, published 2026)
